# Reference: patent publication EP2330125A2
# How the values were obtained:
# [1] = molecular target: neuropeptide Y2 receptor (UniProt P49146); experiment: [125I]-human PYY displacement, SK-N-BE membranes
# [2] = molecular target: CGRP receptor (Homo sapiens (Human)) (UniProt Q16602); experiment: 125I-hCGRP displacement, SK-N-MC membranes
# [3] = molecular target: calcitonin receptor; experiment: cell-based or functional assay
# [4] = molecular target: calcitonin receptor; experiment: calcitonin receptor binding assay
# Sequence of neuropeptide Y2 receptor (P49146 whole entry): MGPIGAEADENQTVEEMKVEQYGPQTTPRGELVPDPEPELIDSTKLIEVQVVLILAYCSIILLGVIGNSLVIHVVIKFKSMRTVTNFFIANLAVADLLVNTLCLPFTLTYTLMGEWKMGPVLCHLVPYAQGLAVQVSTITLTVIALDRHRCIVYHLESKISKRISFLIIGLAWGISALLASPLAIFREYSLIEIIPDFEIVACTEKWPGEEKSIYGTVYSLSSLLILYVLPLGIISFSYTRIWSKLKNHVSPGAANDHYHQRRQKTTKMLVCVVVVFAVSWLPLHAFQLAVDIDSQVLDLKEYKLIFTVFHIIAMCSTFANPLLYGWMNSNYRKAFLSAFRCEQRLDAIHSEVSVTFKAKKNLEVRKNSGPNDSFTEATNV
# Sequence of calcitonin receptor (P30988 whole entry): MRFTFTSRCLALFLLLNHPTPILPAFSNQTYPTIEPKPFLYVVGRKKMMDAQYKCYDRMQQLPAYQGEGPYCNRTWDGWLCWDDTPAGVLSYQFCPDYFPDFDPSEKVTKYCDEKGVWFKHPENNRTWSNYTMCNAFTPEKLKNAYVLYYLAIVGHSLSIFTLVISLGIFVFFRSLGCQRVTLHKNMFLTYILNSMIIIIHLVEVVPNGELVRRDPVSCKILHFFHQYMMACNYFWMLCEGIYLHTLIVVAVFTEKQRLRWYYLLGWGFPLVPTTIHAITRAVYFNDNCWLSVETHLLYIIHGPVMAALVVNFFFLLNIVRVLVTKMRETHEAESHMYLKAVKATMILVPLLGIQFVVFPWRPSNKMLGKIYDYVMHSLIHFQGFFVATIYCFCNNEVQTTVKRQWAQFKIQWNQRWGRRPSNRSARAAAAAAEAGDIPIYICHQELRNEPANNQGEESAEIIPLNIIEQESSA
Substance,Receptor Binding [1],other results
"[#Cys-Gly-Gly-PYY (3-36), amide] [Asp(#)-Pro-Pro-Pro-Pro-Pro-Pro-PYY (3-36), amide] (peptide)",0.8,–
"[#NH-Cys-(bAla)-PYY-(3-36), amide] [#Suc-(bAla)-PYY-(3-36), amide] (peptide)",1.2,–
"[#Des-Lys1 Compound 10, amide] (Asp(#)-Pro-Pro-Pro-Pro-Pro-Pro-PYY (3-36), amide (peptide)",0.5,–
"27(p-CH2SO3)-PheCCK8(26-33),G,K,R,15Glu,hAmy(1-17),18Arg,sCT(18-26),hAmy(32-37) (peptide)",–,Receptor Binding [2]: 4.4
"[#Cys-Gly-Gly-PYY (3-36), amide] [Asp(#)-miniPEG3-Gly-PYY (3-36), amide] (peptide)",0.8,–
Rat amylin (peptide),–,Receptor Binding [2]: 21
"[#NH-Cys-(bAla)-PYY-(3-36), amide] [#Suc-(bAla)-PYY-(3-36), amide] (peptide; modification not given)",–,CT cyclase [3]: 2270; Receptor Binding [4]: 643

# More lines, main results first:
Receptor Binding [1],Substance,other results
0.39,"[#Suc-(bAla)-PYY-(3-36), amide] [#NH-Des-Lys1-Rat Amylin, amide] (peptide)",–
0.2,Human NPY (peptide),–
0.8,"[Asp(#)-miniPEG-Gly-PYY (3-36), amide] [#Cys-Gly-Gly-PYY (3-36), amide] (peptide)",–
0.2,[Ac-alpha-MSH-bAla-bAla-PYY-(3-36); amide] (peptide),–
